Data from publication PMC8778164, “Towards Complete Tumor Resection: Novel Dual-Modality Probes for Improved Image-Guided Surgery of GRPR-Expressing Prostate Cancer” (Pharmaceutics, 2022).
Where two headings read alike, the source gives them in different places.

How the values were obtained:
[1] = Stability in mouse serum at 37 °C (iTLC); type: in vitro ADME
Description: Stability in PBS was determined by incubating 20 µL of the labeled compounds (∼11 MBq) in PBS (80 µL) at 37 °C. Radiochemical purity was determined by iTLC at 30 min, 1 h, 2 h and 4 h. Stability in the serum was carried out by adding 70 µL of the labeled compound (∼35 MBq) to 330 µL of mouse serum (Merck, Haarlerbergweg, The Netherlands). The mixture was incubated at 37 °C. At different time points (30 min, 1 h, 2 h and 4 h), an aliquot of the mixture (50 µL) was added to 50 µL ACN. The vial was vortexed and centrifuged at 10,000 rpm for 20 min and the supernatant was analyzed by iTLC.

[2] = Ex vivo optical (fluorescence, IVIS) imaging of organs; type: in vivo, mouse; details: male, Balb/c nu/nu, mouse, iv, ex vivo radiant efficiency
Description: (§1) Seven-week-old male Balb/c nu/nu-specific and opportunistic pathogen-free (SOPF) mice (Janvier Labs, Le Genest-Saint-Isle, France) were housed in individually ventilated cages, with 4 mice per cage. Upon arrival, mice were acclimated for 1 week, with access to food and water ad libitum. Mice were subcutaneously inoculated on the right shoulder with PC-3 cells (5 × 10^6 cells suspended in 100 µL of 1/3 Matrigel (Corning Inc., Corning, NY, USA) and 2/3 Hank’s balanced salt solution (Gibco). PC-3 xenografts were allowed to grow for 3 weeks. Tumor sizes were 391 ± 173 mm^3 at the start of the studies. All animal experiments were approved by the Animal Welfare Committee of the Erasmus MC and were conducted in agreement with institutional guidelines (license number: AVD101002017867, 28 September 2017).
Before gamma counter measurements, the tumor half, pancreas, kidneys, lungs, small intestine, large intestine, liver, muscle, and bone were placed in two petri dishes and ex vivo optical imaging was performed with the IVIS Spectrum system (Perkin Elmer, Waltham, MA, USA) using the following settings for all measurements: FOV 12.6 cm, medium binning, f2, 0.5 s exposure with an excitation/emission filter of 640 nm/680 nm. Living Image version 4.5.2 software (Perkin Elmer) was used to perform data analysis by drawing a region of interest around the organ/tissue to quantify the radiant efficiency {(photons/second/cm^2/steradian)/(μW/cm^2)}.

[3] = tested on: PC-3-xenograft Balb/c nu/nu mice; test: Ex vivo biodistribution after SPECT/CT scanning; type: in vivo, mouse; details: radioactivity, ~3 h p.i.
Description: as §1
(§2) To determine the biodistribution of the compounds after imaging (~3 h p.i.), blood was collected via cardiac puncture under isoflurane/O2 anesthesia, after which the mice were sacrificed. The tumor and organs of interest (prostate, pancreas, spleen, liver, GI tract (stomach, small intestine, cecum, large intestine), kidneys, lungs, heart, muscle, bone, and brain) were excised, washed in PBS and blotted dry. The stomach, intestines and cecum were emptied of their contents. The tumor was cut in half; one half was fresh-frozen for further analysis and the other half was collected for ex vivo optical imaging and radioactivity measurements. After imaging, the blood, tumor, and relevant organs were weighed and measured in a γ-counter. To determine the total injected radioactivity per animal, samples of the injected solutions were measured as well. The percentage of injected dose per gram (%ID/g) was determined for each tissue sample and corrected for both the injected volume and %ID present at the injection site (the tail). Because the low weight of the prostate limited accurate organ weight measurements, the average prostate weight of all animals was used.

[4] = Ex vivo biodistribution after SPECT/CT scanning; type: in vivo, mouse; details: mouse, iv, ~3 h p.i.; for tissue to tissue ratio: male, Balb/c nu/nu, total radioactivity, radioactivity; for tissue uptake at 3 h: PC-3 xenograft mice, i.v.
Description: as §1, §2

[5] = blocked with 150 nmol unlabeled NeoB, n = 1

CC(C)CC(CC(C)C)NC(=O)[C@H](Cc1c[nH]cn1)NC(=O)CNC(=O)[C@@H](NC(=O)[C@H](C)NC(=O)[C@H](Cc1c[nH]c2ccccc12)NC(=O)[C@H](CCC(N)=O)NC(=O)[C@@H](Cc1ccccc1)NC(=O)CCOCCOCCOCCOCCNC(=O)[C@H](CCCCNC(=O)OC1CCCC2C=NN=C(c3ccc(CNC(=O)CCCCC[N+]4=C(/C=C/C=C/C=C5N(C)c6ccc(S(=O)(=O)O)cc6C5(C)C)C(C)(C)c5cc(S(=O)(=O)[O-])ccc54)cc3)C2CC1)NC(=O)CN1CCN(CC(=O)O)CCN(CC(=O)O)CCN(CC(=O)O)CC1)C(C)C (stereo partly drawn) [[^111In]In-15, metal not drawn]
Stability in Mouse Serum (%) 30 min ([1]; intact labeled ligand after incubation at 37 °C in mouse serum, 30 min, n = 1): 96.9% | Stability in Mouse Serum (%) 1 h ([1]; intact labeled ligand after incubation at 37 °C in mouse serum, 1 h, n = 1): 96.7% | Stability in Mouse Serum (%) 2 h ([1]; intact labeled ligand after incubation at 37 °C in mouse serum, 2 h, n = 1): 96.9% | Stability in Mouse Serum (%) 4 h ([1]; intact labeled ligand after incubation at 37 °C in mouse serum, 4 h, n = 1): 97.1% | Protein-Bound Fraction at 4 h (%) ([1]; mouse serum, 4 h): 6.5% | tissue to tissue ratio ([2]; tumor and kidney, blocked with 150 nmol unlabeled NeoB, n = 1, read-out: Tumor-to-kidney ratio (fluorescence)): 0.24 | tissue to tissue ratio ([2]; tumor and kidney, non-blocked, n = 3, read-out: Tumor-to-kidney ratio (fluorescence)): 0.59 ± 0.14 | tissue to tissue ratio ([2]; tumor and liver, blocked with 150 nmol unlabeled NeoB, n = 1, read-out: Tumor-to-liver ratio (fluorescence)): 0.84 | tissue to tissue ratio ([2]; tumor and liver, non-blocked, n = 3, read-out: Tumor-to-liver ratio (fluorescence)): 1.96 ± 0.57 | tissue to tissue ratio ([2]; tumor and muscle, blocked with 150 nmol unlabeled NeoB, n = 1, read-out: Tumor-to-muscle ratio (fluorescence)): 1.54 | tissue to tissue ratio ([2]; tumor and muscle, non-blocked, n = 3, read-out: Tumor-to-muscle ratio (fluorescence)): 4.5 ± 1.87 | tissue to tissue ratio ([2]; tumor and pancreas, blocked with 150 nmol unlabeled NeoB, n = 1, read-out: Tumor-to-pancreas ratio (fluorescence)): 1.25 | tissue to tissue ratio ([2]; tumor and pancreas, non-blocked, n = 3, read-out: Tumor-to-pancreas ratio (fluorescence)): 0.95 ± 0.18 | Tumor-to-blood ratio [3, 5]: 0.32 | Tumor-to-prostate ratio [3, 5]: 3.09 | Tumor-to-prostate ratio ([3]; non-blocked, n = 3): 2.16 ± 0.46 | tissue to tissue ratio ([4]; tumor and blood, non-blocked, n = 3, read-out: Tumor-to-blood ratio): 0.38 ± 0.04 | tissue to tissue ratio ([4]; tumor and kidney, blocked with 150 nmol unlabeled NeoB, n = 1, read-out: Tumor-to-kidney ratio): 0.24 | tissue to tissue ratio ([4]; tumor and kidney, non-blocked, n = 3, read-out: Tumor-to-kidney ratio): 0.45 ± 0.04 | tissue to tissue ratio ([4]; tumor and liver, blocked with 150 nmol unlabeled NeoB, n = 1, read-out: Tumor-to-liver ratio): 0.49 | tissue to tissue ratio ([4]; tumor and liver, non-blocked, n = 3, read-out: Tumor-to-liver ratio): 0.78 ± 0.04 | tissue to tissue ratio ([4]; tumor and muscle, blocked with 150 nmol unlabeled NeoB, n = 1, read-out: Tumor-to-muscle ratio): 3.42 | tissue to tissue ratio ([4]; tumor and muscle, non-blocked, n = 3, read-out: Tumor-to-muscle ratio): 6.27 ± 0.44 | tissue to tissue ratio ([4]; tumor and pancreas, blocked with 150 nmol unlabeled NeoB, n = 1, read-out: Tumor-to-pancreas ratio): 2.95 | tissue to tissue ratio ([4]; tumor and pancreas, non-blocked, n = 3, read-out: Tumor-to-pancreas ratio): 0.72 ± 0.08 | tissue uptake at 3 h ([4]; blood, blocked with 150 nmol unlabeled NeoB, n = 1, read-out: Blood uptake): 13.9 %ID/g | tissue uptake at 3 h ([4]; blood, non-blocked, n = 3, read-out: Blood uptake): 18.3 ± 2.12 %ID/g | tissue uptake at 3 h ([4]; bone, blocked with 150 nmol unlabeled NeoB, n = 1, read-out: Bone uptake): 2.82 %ID/g | tissue uptake at 3 h ([4]; bone, non-blocked, n = 3, read-out: Bone uptake): 3.05 ± 0.74 %ID/g | tissue uptake at 3 h ([4]; brain, blocked with 150 nmol unlabeled NeoB, n = 1, read-out: Brain uptake): 0.51 %ID/g | tissue uptake at 3 h ([4]; brain, non-blocked, n = 3, read-out: Brain uptake): 0.67 ± 0.28 %ID/g | tissue uptake at 3 h ([4]; cecum, blocked with 150 nmol unlabeled NeoB, n = 1, read-out: Cecum uptake): 2.31 %ID/g | tissue uptake at 3 h ([4]; cecum, non-blocked, n = 3, read-out: Cecum uptake): 5.21 ± 1.94 %ID/g | tissue uptake at 3 h ([4]; heart, blocked with 150 nmol unlabeled NeoB, n = 1, read-out: Heart uptake): 3.27 %ID/g | tissue uptake at 3 h ([4]; heart, non-blocked, n = 3, read-out: Heart uptake): 5.43 ± 0.69 %ID/g | tissue uptake at 3 h ([4]; kidneys, blocked with 150 nmol unlabeled NeoB, n = 1, read-out: Kidneys uptake): 18.2 %ID/g | tissue uptake at 3 h ([4]; kidneys, non-blocked, n = 3, read-out: Kidneys uptake): 15.4 ± 0.5 %ID/g | tissue uptake at 3 h ([4]; large intestine, blocked with 150 nmol unlabeled NeoB, n = 1, read-out: Large intestine uptake): 2.35 %ID/g | tissue uptake at 3 h ([4]; large intestine, non-blocked, n = 3, read-out: Large intestine uptake): 5.6 ± 1.44 %ID/g | tissue uptake at 3 h ([4]; liver, blocked with 150 nmol unlabeled NeoB, n = 1, read-out: Liver uptake): 8.93 %ID/g | tissue uptake at 3 h ([4]; liver, non-blocked, n = 3, read-out: Liver uptake): 8.87 ± 0.65 %ID/g | tissue uptake at 3 h ([4]; lungs, blocked with 150 nmol unlabeled NeoB, n = 1, read-out: Lungs uptake): 18.9 %ID/g | tissue uptake at 3 h ([4]; lungs, non-blocked, n = 3, read-out: Lungs uptake): 6.77 ± 1.73 %ID/g | tissue uptake at 3 h ([4]; muscle, blocked with 150 nmol unlabeled NeoB, n = 1, read-out: Muscle uptake): 1.28 %ID/g | tissue uptake at 3 h ([4]; muscle, non-blocked, n = 3, read-out: Muscle uptake): 1.1 ± 0.09 %ID/g | tissue uptake at 3 h ([4]; pancreas, blocked with 150 nmol unlabeled NeoB, n = 1, read-out: Pancreas uptake): 1.49 %ID/g | tissue uptake at 3 h ([4]; pancreas, non-blocked, n = 3, read-out: Pancreas uptake): 9.72 ± 1.63 %ID/g | tissue uptake at 3 h ([4]; prostate, blocked with 150 nmol unlabeled NeoB, n = 1, read-out: Prostate uptake): 1.42 %ID/g | tissue uptake at 3 h ([4]; prostate, non-blocked, n = 3, read-out: Prostate uptake): 3.27 ± 0.74 %ID/g | tissue uptake at 3 h ([4]; small intestine, blocked with 150 nmol unlabeled NeoB, n = 1, read-out: Small intestine uptake): 1.97 %ID/g | tissue uptake at 3 h ([4]; small intestine, non-blocked, n = 3, read-out: Small intestine uptake): 3.79 ± 0.69 %ID/g | tissue uptake at 3 h ([4]; spleen, blocked with 150 nmol unlabeled NeoB, n = 1, read-out: Spleen uptake): 5.05 %ID/g | tissue uptake at 3 h ([4]; spleen, non-blocked, n = 3, read-out: Spleen uptake): 5.86 ± 1.7 %ID/g | tissue uptake at 3 h ([4]; stomach, blocked with 150 nmol unlabeled NeoB, n = 1, read-out: Stomach uptake): 3.48 %ID/g | tissue uptake at 3 h ([4]; stomach, non-blocked, n = 3, read-out: Stomach uptake): 4.4 ± 1.04 %ID/g | tissue uptake at 3 h ([4]; tumor, blocked with 150 nmol unlabeled NeoB, n = 1, read-out: Tumor uptake): 4.39 %ID/g | tissue uptake at 3 h ([4]; tumor, non-blocked, n = 3, read-out: Tumor uptake): 6.9 ± 0.81 %ID/g
